Experiment: yeast display, Sf9 membrane polyspecificity reagent, FACS + sequencing; frameworks hold sequencing errors
Method in brief: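 After 36–48 hours of galactose induction, yeast (Saccharomyces cerevisiae BJ5465) displaying a synthetic nanobody library were stained at 4 °C for 1 hour with 10% biotinylated, detergent-solubilized Sf9 membrane reagent. Streptavidin microbeads enriched the stained cells before FACS sorting into low and high (top ~1%) gates on anti-HA and streptavidin fluorescence. Each clone's polyreactivity label reflects its gate of origin.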

Sequence	polyreactivity (PSR sort gate)
QLQLVESGGGLVQAGGSLRLSCAASGIIFRWYAMGFYRQAPGKERELVAAITSSGGRTYYADSVKGRFTISRDNAKNTVYLPMNILKPEDTAVYYCAASYYIVGCDPYDYWGQGTQVTVSS	high polyreactivity
QLQLVESGGGLVQAGGSLRLSCAASGITFGANTMGWYRQAPGTERELVAAITISGGITHYADSVKGRFTISRDNAKNTVYLQMNSLKPEDTAVYYCAAGAYWRLYPYRQRNGGRMYYWGQGTQVTVSS	low polyreactivity
QLQLVESGGGLVQAGGSLRLSCAASGITFYVYAMGCYRQAPGKERELVAAISTSGGSTYYADSVKGRFTISRDNAKNTVYFQMNSLKPEDTAVYYCAAEELRYGLYEYDYWGQGTQVTVSS	high polyreactivity
QLQLVESGGGLVQAGGSLRLSCAASGLILPYYAMGWYRQAPGKERALVAAISRTGGRTSYADSVKGRFTISRDNAKNTVYLQMNSLKPEDTAVYYCAARYGRYYGYNYWGQGTQVTVSS	high polyreactivity
QLQLVESGGGLVQAGGSLRLSCAASGLILYSYAMGRYRQAPGKERELVADISSGGITNYADSVKGRFTISRDNAKNTVYLQMNSLKPADTAVNYCAADTRPVNYILYEYWGQGTQVTVSS	low polyreactivity
QLQLVESGGGLVQAGGSLRLSCAASGLTFSYYAMGSYRQAPGKERELVAAITSSGGNTYYADSVKGRFTISRDNANNTVYLQMNSMKPEDTAVYYCAAERYQSFCYGKRPRRPRYDYWGLGTQVTVSS	high polyreactivity
QLQLVESGGGLVQAGGSLRLSCAASGLTFYVYAMGWYRQAPCKERELVAAISSGGRTYYADSVKGRFTISRDNAKNTVYLQMNSLKPEDTAVYYCAAVRHRNYGYWGQGTQVTVSS	high polyreactivity
QLQLVESGGGLVQAGGSLRLSCAASGLTYEGYAMGWYRQAPGKERELVAAITGSGSTTYYADSVKGRFTISRDNAKNTVYLQMNSLKPEDSAVYYCAADVSYKLYWGQGTQVTVSS	low polyreactivity
QLQLVESGGGLVQAGGSLRLSCAASGRIFRRYTMRSYRQAPGKERELVAAITWKGGRTSYADSVKGRFTISRDNANNTVYLQMNSLKPQDTAVYYCAAECPSRYHTFEFWGQGTQVTVSS	high polyreactivity
QLQLVESGGGLVQAGGSLRLSCAASGRIFTGNAMGWYRQAPGKERELVAAISYSGGSTYYADSVKGRFTISRDNAKNTVYLQMNSLKPEDTAVYYCAAAGRYLRYGYWGQGTQVTVSS	high polyreactivity
QLQLVESGGGLVQAGGSLRLSCAASGRIFWPNALGWYRQAPGKEREFVAAIRWSSDRTYYADSVKGRFTISRDNAKNTVYLQRNSLKPEDTAVYYCNAVRYVISKYDYWGQGTQVTVSS	high polyreactivity
QLQLVESGGGLVQAGGSLRLSCAASGRNFGYNAMGWYRPAPGKERELVAVINIDGSTNYADSVKGRFTISRDNAKNTVYLQLNSLNPEDTAVYYCAARYWKSYRNGGFFGFTYYYWGQGTQVTVSS	high polyreactivity
QLQLVESGGGLVQAGGSLRLSCAASGRTFIHYAMGWYRQAPGKERELVAAISDDASSTYYADSVKGRFTISRDNAKNTVYLQMNSLKPEDTAVYYCNVELAKVGGVEYDYWGQGTLVTVSS	low polyreactivity
QLQLVESGGGLVQAGGSLRLSCAASGSIFFSYAMGWYRQAPGKERELVAAIDYSGGGTYYADSVKGRFTISRDNAKNTVYLQMNSLKPEDTAVYYCNSDTEVWADTFISYRALNYWGQGTQVTVSS	low polyreactivity
QLQLVESGGGLVQAGGSLRLSCAASGSIFHRYAMGWYRQAPGKEREFVAAISGRGGSTYYADSVKGRITISRDNAKNTVYLQMNSLKPEDTAVYYCAADSSLFYGRPRYYYWGQGTQVTVSS	high polyreactivity
QLQLVESGGGLVQAGGSLRLSCAASGSIFNQYAMGWYRQAPGKERELVAAISSGSTYYADSVKGRFIISRDNAKNTVYLQMFSLKPEDTAVYYCAAGRNRRSSGIYVSKYWGQGTQETVSS	high polyreactivity
QLQLVESGGGLVQAGGSLRLSCAASGSIFPDYAMGWYRPAPAKERELVAAITWRDDSTYYADSVKGRFTISRDNAKNTVYLQMNSLKPEDTAVYYCNASALDPLYAKDDYWGQGTQVTVSS	low polyreactivity
QLQLVESGGGLVQAGGSLRLSCAASGSILYIKTMGWYRQAPGKERELVAAITYSGGSTYYADAVKGRFTISRDNAKNTVYLQMTSLKPEDTAVYYCAADGYYGGFNYWGQGTQVTVSS	low polyreactivity
QLQLVESGGGLVQAGGSLRLSCAASGSIYWRNAMGWYRQAPGKERELVAAITSGGSTYYADSVKGRFTISRDNAKNTVYLQMNSLKPEDTAVYYCAAGYSYRYGYWGQGTQVTVSS	low polyreactivity
QLQLVESGGGLVQAGGSLRLSCAASGSTFLYNAMGWYRQAPGKERELVAAITVSDGSTYYADSVKGRFTISRDNAKNTVYLKMNSLKPVDTAVYYCNADFPRKTRYEYWGQGTQVTVSS	low polyreactivity
QLQLVESGGGLVQAGGSLRLSCAASGSTFPTNAMGWYRQAPGKERELVARISWDGGRTNYADSVKGRFTISRDNAKNTVYLQMNSLKPEDTAVYYCAAEKQHFGPYGYWGQGTQVTVSS	low polyreactivity
QLQLVESGGGLVQAGGSLRLSCAASGSTFREYAMGWYRQAPGKERELVAAISSGDSTNYADSVKGRFTISRDNAKNTVYLQMNSLKPEDTSVYYCAADAQGAAAVQNDYWGQGTQVTVSS	low polyreactivity

Sequence	polyreactivity (PSR sort gate)
QLQLVESGGGLVQAGGSLRLSCAASGSTFRYNAMGWYRQAPGKEREFVAAITSGGGSTYYADSVKGRFTISRDNAKNTVYLQMNSLKPEDTAVYYCAKYTSSRRNTWYYYWGQGTQVTVSS	high polyreactivity
QLQLVESGGGLVQAGGSLRLSCAASGSTISGYAMGWYRQAPGKARELVARINSGGGRTYYADSVKGRFTISRDNAKNTVYLQMNSLKREDTEVYYFAAYSKPFPYVSTIRYYYWGQGTQVTVSS	high polyreactivity
QLQLVESGGGLVQAGGSLRLSCAASGSTLDRYVMGWYRPAPGKERELVAAISRNGGSTYYADSVKGRFTISRDIAKNTVYLQMNSLKPEDTAVYYCAAYIYQSPTRGGGYWGQGTQVTVSS	high polyreactivity
QLQLVESGGGLVQAGGSLRLSCAASGSTYGPYAMGWYRQAPGKERELVSAITISGDSTNYADSVKGRFTISRDNAKNTVYLQMNSLKPEDTAVYYCAAAYYWLQSWYDYWGQGTQVTVSS	low polyreactivity
QLQLVESGGGLVQAGGSLRLSCAASGYMGWYRQAPGKERELVATISGSGGSTYYADSVKGRFTISRDNAKNTVYLQMNSLKPEDTAVYYCTTEIWGVNRSGYDYWGQGTQVTVSS	low polyreactivity
QLQLVESGGGLVQAGGSLRLSCAASGYTFKTNDMGWYRQAPGKEREFVAAIDSGGNTYYADSVKGRFTISRDNAKNTVYLQMNSLKPEDTAVYYCAAYRDYQNDYWGQGTQVTVSS	low polyreactivity
QLQLVESGGGLVQAGGSLRLSCAPSGRIFPSYAMGWYRQAPGKERELVAPISWSGVSTYADSVKGRFTISRDNAKNTVYLQMNSVKPEDTAVYFCAAQYTLVIFPYGGYVIEYEYWGQGTQVTVSS	low polyreactivity
QLQLVESGGGLVQAGGSLRLSCAPTGRTFYRNAMGCKRPAPGKESELVASIRRNGGSTYYADSVKGRFTITRDNAKNTVYLPMNSMKPEDTAVYYCAAYFSYAGPKGAVYGMDYWGQGTQVTVSS	high polyreactivity
QLQLVESGGGLVQAGGSLRLSCASSGIIFRWYTIGWSRQAPGKERELDAAITGRGGSTFYADSVKGRFTISRDNAKNTVYVQMNSLKPEDTAFYYCAAQYSYPTPYRTYEYDYWGQGTQVTVSS	high polyreactivity
QLQLVESGGGLVQAGGSLRLSCASSGSIFLFNAMGWYRQAAGQERELVAAITSSGTRTYYADSVKGRFTISRDNAKNTVYLQMNSLKPEDTAVYYCNAVGPVDSYHRYYYWGQGTQGTVSS	low polyreactivity
QLQLVESGGGLVQAGGSLRLSCASSGSNFQPYAMGWYRQAPGIERELVAAISRGGTTYYADSVKGRFTISRDNAKTTVYLQMNSLKPEDTAVYYCAADSYKPDGYRLRNDYWGQGTQVIVSS	high polyreactivity
QLQLVESGGGLVQEGGSLRLSCAASGSTFVYNDKGWYRQAPGKDRELVAAITSGVRTYYSDYVKGRFTISRDNAKNTVYLQMNSLKPEDTALYYCGTGWRYAQYYYWGQGTQVTVSS	high polyreactivity
QLQLVESGGGVVQAGGSLRLSCAASGGIFDRYAMGCDRQAPGKERELVAAITSGGSTNYADSVKGRFTISRDNAKNTVYLQMNSLQPEDTAVYYCNADLGILSGVAEGPTFREYDYWGQGTQVTVSS	low polyreactivity
QLQLVESGGRLVQAGGSLRLSCAASGFIFRWNAMGCYIQAPGKASEFVAAITSSTGSTYYAVSVKGRFTISRDNAKNTVYLQMNSLKPEDTAVYDCAADKRGTVYLSSFWMDYWGQGTQVTVSS	low polyreactivity
QLQLVESGGVLVQAGGSLRLSCAASGTFYGYVMGWYRQAPGKERELGASINWSGGSTNYADSVKGRFTISRDNAKNTVFFQMNSRKPEDTAVYYCNADWGWGAYDYWGQGTQVTVSS	low polyreactivity
QLQLVESGRGLVQAGGSLRLSCAPSGRILVLIAMGWYRQATGKERELVADITSGGSTYYADSVKGRFTISRDNAKKTVYLQMNSLKKEDTAVYYCAADWNTYPDYQQSYFVCYEYNYWGQGTQVTVSS	low polyreactivity
QLQLVESGRGLVQAGGSLRLSCDASGYIFGWYAMGSYRQAPGKERELVAAITRGVSTNYADSVKGRFTISRENAMNTVYLQMNSLKPEDTAVYYCNTEDWAVGSPEVEYEYDYWGQGTQVTVSS	low polyreactivity
QLQLVESVGGLVQAGGSLRLSCASSGRTFDYNAMGWYRQAPGKERELVARISNGDSTYADSVKGRFTISRDNAKNTVYLQMNSLKPVDTAVYYCAKSTRRGGVALGEYDYWGQGTQVTVSS	low polyreactivity
QLQLVETGGGIVQAAGSLRLSCAASGFTYNRYAKGWYRKAPGKERELVAAISRGGTTYADSVKGRFTISRDNAKNTVYLQMNSLKPEDTAVYYCNRLRYGYPQEFGYWGQGTQVTVSS	high polyreactivity
QLQLVETGGGLVQAGGSLRLSCAATGSTFQGYPMGWYRQAPGKDRELVAAISWNGGSTYYADSVKGRFTISRDNAKNTVYLQMNSLKPEDTAVYYCAAYSFAYSYNYWGQGTQVTVSS	high polyreactivity
QLQLVQSGGGLVQAGGSLRLSCAASGITSPYAMGWYRQAPGKERELVARNSKGGGSTYYADSVKGRFTISRDNAKNTVYLQMNSLKPEDTAVYYCAADWYNRSRPRYYTRYYYWGQGTQVTVSS	high polyreactivity
